Molecular target: T1, recombinant human HSP90beta (Homo sapiens, UniProt P08238)
T1 construct: purchased Dr. S. Rüdiger, Cellular Protein Chemistry, Utrecht University
Test: ELISA: binding of HSP90 to immobilized (misfolded) protein ligands
Conditions: 5 mM DTT in binding buffer
Description: Recombinant human HSP90beta was bought from Dr. S. Rüdiger (Cellular Protein Chemistry, Department of Chemistry, Faculty of Science, Utrecht University). HSP90beta eluted from an anion exchange column was supplied in 35 mM Bis-Tris/25mM Tris, 5 mM DTT, approximately 385 mM NaCl, approximately pH 9.0. The HSP90beta concentration was 5.0 μM (450 μg/ml with a MW of 90.000 Da; extinction coefficient of 53740 l/(mol*cm)). The supplied frozen stock is kept at −80° C. Before use, the stock is quickly thawed almost completely in a 37° C. water bath, and kept at wet ice. Before use, the HSP90beta solution is centrifuged for 5 minutes at 16,000*g at 4° C. During dilution of HSP90beta solution, 5 mM DTT should be incorporated in the dilution buffer, to keep free Cys residues. Thawed HSP90beta was aliquoted and snap frozen in liquid nitrogen before re-storage at −80° C.
Binding of chaperones to immobilized (misfolded) protein ligands was determined using an enzyme linked immuno sorbent assay (ELISA) approach. For this purpose 50 μl/well of potential ligands at indicated concentrations or coat buffer only for control and background measurement purposes, were coated overnight at 4° C. or coated for 1 h at room temperature, with motion, in 50 mM NaHCO3 pH 9.6 (coat buffer). In general, ligands were coated at 5 μg/ml, unless stated otherwise. For example, BiP binding peptides 6BB# and oxLDL were coated at 50 μg/ml. Native haemoglobin (Sigma-Aldrich, H7379), albumin, IgIV Gammagard and ovalbumin controls were prepared from lyophilized stocks. The controls were prepared by dissolving lyophilized proteins at 1 mg/ml in PBS upon resuspending by pipetting, followed by a 30 minutes period at the roller device, at room temperature. The protein solutions were centrifuged for 10 minutes at 16,000*g and diluted in coat buffer. After coating the plates were washed at least three times with 50 mM Tris-HCl pH 7.3, 150 mM NaCl, 0.1% v/v Tween20, and blocked with Blocking reagent (Roche Diagnostics, Almere, The Netherlands; 11112589001), for 1 h at room temperature, with motion. Plates were washed three times and incubated in triplicate with indicated chaperone dilution series, at 50 μl/well, for 1 h at room temperature, with constant motion. For HSP90, 5 mM DTT is incorporated in the binding buffer (PBS/0.1% Tween20) to avoid unwanted disulfide bond formation of the HSP90. Plates were washed three times and incubated with anti-FLAG antibody (mouse antibody, M2, peroxidase conjugate; Sigma, A-8592) for BiP-FLAG-His, anti-His-tag antibody (Mouse Monoclonal Antibody, Cat. No. 70796, Novagen [0.2 mg/ml]) for HSP60, a 1:1 mix of 500-fold diluted anti-HSP90beta antibodies (Stressgen, SPA-643 [mouse monoclonal IgM], SPA-646 [rabbit polyclonal]) for HSP90 and an anti-DnaK antibody (Stressgen, 023SPA-880D [mouse monoclonal antibody]) for DnaK. After four wash cycles, secondary antibodies were added to the wells when required, 50 μl/well, for 45′ at room temperature, with motion. RAMPO and SWARPO were used at 3000 times dilution. […] In a second experiment with more immobilized misfolded proteins and controls, the detection of bound HSP90 with the mix of two anti-HSP90 antibodies was achieved by mixing 1:1500 SWARPO with 1:3000 RAMPO. After 5 washes with wash buffer followed by two washes with PBS, binding of antibodies was assessed. […] Plates were read at 450 nm. Triplicates were averaged and standard deviations calculated. […]

T1 sequence (P08238 whole entry): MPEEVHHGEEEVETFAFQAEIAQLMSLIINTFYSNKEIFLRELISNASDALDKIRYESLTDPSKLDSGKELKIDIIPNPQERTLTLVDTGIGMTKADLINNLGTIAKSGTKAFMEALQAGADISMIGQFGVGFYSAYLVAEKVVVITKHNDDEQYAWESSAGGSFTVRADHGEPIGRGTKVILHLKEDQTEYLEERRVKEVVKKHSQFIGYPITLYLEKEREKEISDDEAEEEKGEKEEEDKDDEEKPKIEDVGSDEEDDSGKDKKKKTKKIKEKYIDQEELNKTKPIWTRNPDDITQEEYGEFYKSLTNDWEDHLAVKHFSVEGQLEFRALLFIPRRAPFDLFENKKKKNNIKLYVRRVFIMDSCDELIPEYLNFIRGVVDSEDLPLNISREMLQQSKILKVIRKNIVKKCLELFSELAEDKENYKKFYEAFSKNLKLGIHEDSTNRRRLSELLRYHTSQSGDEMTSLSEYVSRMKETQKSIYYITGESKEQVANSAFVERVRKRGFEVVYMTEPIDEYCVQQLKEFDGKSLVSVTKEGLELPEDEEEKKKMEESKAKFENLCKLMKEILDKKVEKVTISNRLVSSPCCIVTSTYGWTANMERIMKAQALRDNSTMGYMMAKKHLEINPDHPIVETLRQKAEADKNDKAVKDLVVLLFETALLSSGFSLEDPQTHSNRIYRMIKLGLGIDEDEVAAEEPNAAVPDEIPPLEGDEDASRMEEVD

Row | Substance | Binding of concentration series of HSP90 to coated ligand
1 | AGEYYAAL [6BB7] | little binding
2 | GSNKGAIIGLM [6BB6, Human Aβ (25-35)] | has been established
3 | Hb: non-modified human haemoglobin control | did not bind
4 | HbAGE: human haemoglobin glycated with glucose-6-phosphate for 75 weeks | has been established
5 | KLVFFAE [6BB12, Human Aβ16-22] | did not bind
